Results taken from US20210340273A1 (INHLBRX, published 2021).
One block for each binder: values may come before it.

Columns and labels:
hmc5T4.2 = target: T1, hmc5T4.2; assay: flow cytometry on CHO cells transiently transfected with the 5T4 construct
T1 construct: the rest is mouse 5T4; also called chimeric hmc5T4.2; not shown: intracellular Citrine tag fused to the full coding region
T1 chain: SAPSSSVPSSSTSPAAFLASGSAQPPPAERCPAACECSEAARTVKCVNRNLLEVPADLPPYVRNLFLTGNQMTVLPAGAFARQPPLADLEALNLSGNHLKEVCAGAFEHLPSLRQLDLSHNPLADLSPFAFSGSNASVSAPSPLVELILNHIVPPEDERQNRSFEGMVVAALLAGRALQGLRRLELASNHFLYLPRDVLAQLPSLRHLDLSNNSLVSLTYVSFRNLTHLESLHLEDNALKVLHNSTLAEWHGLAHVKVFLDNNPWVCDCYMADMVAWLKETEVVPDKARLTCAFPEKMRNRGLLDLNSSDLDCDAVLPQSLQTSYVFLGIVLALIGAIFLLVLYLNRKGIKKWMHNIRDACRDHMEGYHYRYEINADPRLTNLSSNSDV
Excerpt: (§1) In order to determine the location of the epitope recognized by these sdAbs, various mouse:human chimeric 5T4 constructs were generated, wherein various portions of the murine extracellular domain of 5T4 were replaced with that of human 5T4. The constructs were generated by grafting a nucleic acid sequence encoding the specific region of human 5T4 into the cognate region of mouse 5T4 in a mammalian expression plasmid encoding the full 5T4 coding region (extracellular domain, transmembrane domain, intracellular domain) fused to an intracellular Citrine tag. […] CHO cells were transiently transfected with these constructs to enable cell surface expression, and binding was monitored by flow cytometry.

[1] = target: T2, human 5T4 construct (Hu), full 5T4 coding region fused to an intracellular Citrine tag, on transfected CHO … (human, UniProt Q13641 32-420); assay: as above
T2 construct: also called fully human construct; not shown: intracellular Citrine tag
T2 sequence: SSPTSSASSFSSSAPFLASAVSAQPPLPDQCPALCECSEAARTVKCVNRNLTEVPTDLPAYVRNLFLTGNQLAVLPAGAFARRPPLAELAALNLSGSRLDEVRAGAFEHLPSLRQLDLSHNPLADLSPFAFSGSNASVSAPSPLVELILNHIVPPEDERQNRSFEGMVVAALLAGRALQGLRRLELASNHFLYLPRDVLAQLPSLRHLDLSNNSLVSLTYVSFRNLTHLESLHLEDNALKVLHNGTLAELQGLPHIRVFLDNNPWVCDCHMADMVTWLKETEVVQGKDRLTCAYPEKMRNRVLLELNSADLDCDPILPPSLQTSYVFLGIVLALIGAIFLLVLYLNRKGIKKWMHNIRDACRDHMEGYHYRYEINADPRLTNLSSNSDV
Excerpt: as §1

[2] = target: T3, murine 5T4 construct (Mu), full 5T4 coding region fused to an intracellular Citrine tag, on transfected CHO … (mouse, UniProt Q9Z0L0 32-426); assay: as above
T3 construct: also called fully murine construct; mouse 5T4 antigen; not shown: intracellular Citrine tag
T3 sequence: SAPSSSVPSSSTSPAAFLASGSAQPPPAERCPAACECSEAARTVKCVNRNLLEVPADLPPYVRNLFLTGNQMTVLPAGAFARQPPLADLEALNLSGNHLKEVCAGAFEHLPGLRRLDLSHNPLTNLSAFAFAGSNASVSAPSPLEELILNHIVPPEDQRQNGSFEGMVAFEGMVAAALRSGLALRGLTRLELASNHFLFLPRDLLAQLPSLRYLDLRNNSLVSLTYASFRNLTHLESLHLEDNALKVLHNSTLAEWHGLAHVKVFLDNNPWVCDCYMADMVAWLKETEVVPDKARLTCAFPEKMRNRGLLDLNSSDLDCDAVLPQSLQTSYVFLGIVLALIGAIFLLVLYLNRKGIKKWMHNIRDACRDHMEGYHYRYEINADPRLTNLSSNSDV
Excerpt: as §1

[3] = target: T4, human 5T4 (trophoblast glycoprotein), endogenous on the cell surface (human, UniProt Q13641 32-420); assay: flow cytometry, sdAb-Fc on 5T4 expressing T47D cells
T4 construct: also called TPBG; 5T4 oncofetal antigen
T4 sequence: T2 sequence

[4] = target: T2, human 5T4 construct (Hu), full 5T4 …; assay: flow cytometry on CHO cells transfected with human, mouse and chimeric 5T4 constructs
Excerpt: as §1

[5] = target: T3, murine 5T4 construct (Mu), full 5T4 …; assay: flow cytometry on CHO cells transfected with the fully murine 5T4 construct (Mu, FIG. 26C)
Excerpt: as §1

hmc5T4.1 = target: T5, hmc5T4.1; assay: flow cytometry on CHO cells transiently transfected with the 5T4 construct
T5 construct: the rest is mouse 5T4; also called chimeric hmc5T4.1; hybrid mouse/human 5T4 with human residues 1-173 of the extracellular domain; not shown: intracellular Citrine tag fused to the full coding region
T5 chain: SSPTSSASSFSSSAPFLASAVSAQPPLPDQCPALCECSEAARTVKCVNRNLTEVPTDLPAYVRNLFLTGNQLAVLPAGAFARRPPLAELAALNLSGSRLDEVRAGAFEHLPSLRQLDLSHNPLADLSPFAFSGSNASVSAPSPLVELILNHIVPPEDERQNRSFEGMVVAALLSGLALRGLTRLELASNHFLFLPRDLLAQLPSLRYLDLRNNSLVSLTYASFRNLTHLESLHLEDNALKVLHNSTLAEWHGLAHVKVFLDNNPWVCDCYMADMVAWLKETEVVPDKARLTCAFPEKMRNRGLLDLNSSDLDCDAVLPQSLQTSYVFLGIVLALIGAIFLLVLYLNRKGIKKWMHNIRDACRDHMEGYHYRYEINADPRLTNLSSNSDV
Excerpt: as §1

[6] = target: T6, CD3 on the surface of primary human T cells or Jurkat reporter cells (human, UniProt P07766 23-207); assay: printed as Affinity CD3; flow cytometry titration on primary human T cells
T6 construct: whole, on cells; also called CD3 epsilon

[7] = target: T4, human 5T4 (trophoblast glycoprotein), …; assay: printed as Affinity 5T4; apparent affinity from flow cytometry titration on Ovcar-5 cells
Procedure: Binding of exemplary 5T4-targeting constrained CD3 engaging constructs set forth in Table E3 to CD3 on the surface of primary T cells and 5T4 expressing cells (Ovcar-5) was assessed by flow cytometry. The T cells were primary T-cells that were negatively enriched from PBMCs isolated from healthy human donor leukopaks. Bound construct was detected with fluorophore-conjugated secondary antibodies specific for the human Fc (anti-human IgG APC secondary antibody) and binding was measured by flow cytometry. Cells incubated with secondary antibody only served as negative controls. The results, from flow cytometry histograms displaying normalized cell counts versus fluorescence at 200 nM of each construct, are shown in FIG. 4A (cx3253), FIG. 4B (cx3264), FIG. 4C (cx3497), FIG. 4D (cx3499), FIG. 4E (cx3547), FIG. 4F (cx3546), FIG. 4G (cx4224), FIG. 4H (cx4913), FIG. 4I (cx3265), […] (cx4912), FIG. 4K (cx3262), FIG. 4L (cx4911), and FIG. 4M (cx4910). […] However, as shown in the top right and bottom panels of each of the figures, the same constructs were not able to bind to T cells in isolation.
Table E4 summarizes the affinity of exemplary molecules for 5T4 or CD3, as determined from flow cytometry, in these studies.

T6 sequence (P07766 23-207): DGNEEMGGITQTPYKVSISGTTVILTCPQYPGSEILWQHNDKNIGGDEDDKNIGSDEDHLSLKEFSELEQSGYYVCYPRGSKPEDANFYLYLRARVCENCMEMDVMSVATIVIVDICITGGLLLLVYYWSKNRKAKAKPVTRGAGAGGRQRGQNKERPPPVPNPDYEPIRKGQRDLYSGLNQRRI

- EC50 (read off the curve) (hmc5T4.2): ~2 nM
- EC50 (read off the curve) [1]: ~3 nM
- binding result [2]: no binding (tested: about 500 nM)
B1: hz16G10v11 sdAb-Fc (Fc fusion)
chain: EVQLVESGGGEVQPGGSLRLSCAASGRPFSSYAMGWFRQAPGKERETVAAVSRNAGSSYYAESVKGRFTISRDNAKNTVYLQMSSLRAEDTAVYYCAARSAAYSRSSETYTEKHDYTYWGQGTLVTVKP
notes: Humanized variant of 16G10, linked to a human Fc; also called hz16G10v11-Fc; cx7885; not shown: human Fc

- binding result [3]: binds
- binding result [4]: binds
- binding result [5]: no binding
B2: hz14B5v17 sdAb-Fc (Fc fusion)
chain: EVQLVESGGGEVQPGGSLRLSCAASERPFGTYAMGWFRQAPGKERDLVAAVSRNAGASYYAESVKGRFTISRDNAKNTVYLQMSSLRAEDTAVYYCAARSAAYSRSSEVYTGKDEYYYWGQGTLVTVKP
notes: Humanized variant of 14B5, linked to a human Fc; not shown: human Fc

- EC50 (read off the curve) (hmc5T4.1): ~0.8 nM
- EC50 (read off the curve) [1]: ~1 nM
- binding result [2]: no binding (tested: about 500 nM)
B3: hz12E9v9 sdAb-Fc (Fc fusion)
chain: EVQLVESGGGEVQPGGSLRLSCAASGRPFSSKTMAWFRQAPGKEREFVAAVRWIGGATRYTESVKGRFTISRDNAKNTVYLQMSSLRAEDTAVYYCAAGQAWGTKFTDYSDWGQGTLVTVKP
notes: Humanized variant of 12E9; also called hz12E9v09; hz12E9v9-Fc; not shown: human Fc

- Kd [6]: > 200 nM
- Kd [7]: 0.145 nM
B4: cx3264, 5T4-targeted constrained CD3 engaging construct with a 41BB binding domain (bispecific antibody)
chain 1: QVQLQESGGGLVQAGGSLRLSCAASRRPFSSKTMAWFRQTPGKEREFVAAVRWIGGATRYTDSVKGRFSISKDNAINTVYLQTNSLKSEDTAVYYCAAGQTWGTKFTDYSDWGQGTLVTVKPDKTHTCPPCPAPELLGGPSVFLFPPKPKDTLMISRTPEVTCVVVDVSHEDPEVKFNWYVDGVEVHNAKTKPREEQYNSTYRVVSVLTVLHQDWLNGKEYKCKVSNKALPAPIEKTISKAKGQPREPQVYTLPPCRDELTKNQVSLWCLVKGFYPSDIAVEWESNGQPENNYKTTPPVLDSDGSFFLYSKLTVDKSRWQQGNVFSCSVMHEALHNHYTQKSLSLSPTGGSGGGGIEPDIGGSGGSEVQLVESGGGLVQPGGSLRLSCAASGFTFNTYAMNWVRQAPGKCLEWVARIRSKYNNYATYYADSVKGRFTISRDDAKNTLYLQMSSLRAEDTAVYYCVRHGNFGNSYVSWFAYWGQGTLVTVKPQVQLQESGGGLVQAGGSLRLSCAASRRPFSSKTMAWFRQTPGKEREFVAAVRWIGGATRYTDSVKGRFSISKDNAINTVYLQTNSLKSEDTAVYYCAAGQTWGTKFTDYSDWGQGTLVTVKP
chain 2: not shown
